This experiment concerns the target T1, HPK1 intact citron homology domain fragment (C428-E821), untagged, Q92918-2.
T1 chain: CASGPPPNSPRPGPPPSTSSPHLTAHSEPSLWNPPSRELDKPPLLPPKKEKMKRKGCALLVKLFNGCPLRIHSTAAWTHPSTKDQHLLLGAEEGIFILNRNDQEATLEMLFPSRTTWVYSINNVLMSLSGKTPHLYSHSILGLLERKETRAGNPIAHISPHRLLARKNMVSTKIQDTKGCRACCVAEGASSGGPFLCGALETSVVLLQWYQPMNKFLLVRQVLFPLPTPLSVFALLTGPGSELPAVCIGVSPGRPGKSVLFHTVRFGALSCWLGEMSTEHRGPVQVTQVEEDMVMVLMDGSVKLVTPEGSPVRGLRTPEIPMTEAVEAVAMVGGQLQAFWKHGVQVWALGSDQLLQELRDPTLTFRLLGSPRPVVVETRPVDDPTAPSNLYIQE
As to the kind of experiment: SPR. As to conditions: chain shown with the change; left plot; plateau of the last (highest) of five successive CHD injections, about 800-900 s; CHD concentrations not given; read off a plot.

B1: HPK1 kinase domain wild type (D2-N293) S171A (protein)
chain: DVVDPDIFNRDPRDHYDLLQRLGGGTYGEVFKARDKVSGDLVALKMVKMEPDDDVSTLQKEILILKTCRHANIVAYHGSYLWLQKLWICMEFCGAGSLQDIYQVTGSLSELQISYVCREVLQGLAYLHSQKKIHRDIKGANILINDAGEVRLADFGISAQIGATLARRLAFIGTPYWMAPEVAAVALKGGYNELCDIWSLGITAIELAELQPPLFDVHPLRVLFLMTKSGYQPPRLKEKGKWSAAFHNFIKVTLTKSPKKRPSATKMLSHQLVSQPGLNRGLILDLLDKLKN
B1 came in with a response (Response Units) of 42.

Values taken from publication PMC11066036.
